In patent US20170326229A1:

Columns and labels:
Assay in all cases: ELISA, gp120 on plate
[1] = target: CH505 Env w053.29 gp120 (HIV-1)
[2] = target: CH505 Env w078.15 gp120 (HIV-1)
[3] = target: CH505 Env w100.B2 gp120 (HIV-1)
[4] = target: CH505 Env w078.9 gp120 (HIV-1)
[5] = target: CH505 Env w136.B10 gp120 (HIV-1)
[6] = target: CH505 Env w136.B5 gp120 (HIV-1)
[7] = target: CH505 Env w030.20 gp120 (HIV-1)
[8] = target: CH505 Env w053.22 gp120 (HIV-1)
[9] = target: CH505 Env w020.25 gp120 (HIV-1)
[10] = target: CH505 Env w053.31 gp120 (HIV-1)
[11] = target: CH505 Env w030.21 gp120 (HIV-1)
[12] = target: CH505 Env w078.33 gp120 (HIV-1)
[13] = target: CH505 Env w100.B4 gp120 (HIV-1)
[14] = target: CH505 transmitted/founder (TF) Env gp120 (HIV-1)
[15] = target: CH505 Env w004.54 gp120 (HIV-1)
[16] = target: CH505 Env w030.13 gp120 (HIV-1)
[17] = target: CH505 Env w078.6 gp120 (HIV-1)
[18] = target: CH505 Env w100.A13 gp120 (HIV-1)
[19] = target: CH505 Env w020.11 gp120 (HIV-1)
[20] = target: CH505 Env w078.17 gp120 (HIV-1)
[21] = target: CH505 Env w053.15 gp120 (HIV-1)
[22] = target: CH505 Env w136.B2 gp120 (HIV-1)
[23] = target: CH505 Env w020.15 gp120 (HIV-1)
[24] = target: CH505 Env w136.B23 gp120 (HIV-1)
[25] = target: CH505 Env w160.T4 gp120 (HIV-1)
[26] = target: CH505 Env w030.36 gp120 (HIV-1)
[27] = target: CH505 Env w030.17 gp120 (HIV-1)

Substance | log-transformed AUC [1] [log AUC] | log-transformed AUC [2] [log AUC] | log-transformed AUC [3] [log AUC] | log-transformed AUC [4] [log AUC] | log-transformed AUC [5] [log AUC] | log-transformed AUC [6] [log AUC] | log-transformed AUC [7] [log AUC] | log-transformed AUC [8] [log AUC] | log-transformed AUC [9] [log AUC] | log-transformed AUC [10] [log AUC] | log-transformed AUC [11] [log AUC] | log-transformed AUC [12] [log AUC] | log-transformed AUC [13] [log AUC] | log-transformed AUC [14] [log AUC] | log-transformed AUC [15] [log AUC] | log-transformed AUC [16] [log AUC] | log-transformed AUC [17] [log AUC] | log-transformed AUC [18] [log AUC] | log-transformed AUC [19] [log AUC] | log-transformed AUC [20] [log AUC] | further results
CH105 (CH103 lineage monoclonal antibody) | 8.5 | 10.1 | 7.5 | 6.6 | 8.5 | 10.5 | 7.1 | 9 | 8.2 | 13.5 | 10.6 | 8.9 | 11.9 | 11.2 | 8.3 | 10.5 | 3.8 | 11.4 | 3.6 | 9.5 | log-transformed AUC [21]: 9.4 log AUC; log-transformed AUC [22]: 12.4 log AUC; log-transformed AUC [23]: 10.8 log AUC; log-transformed AUC [24]: 13.7 log AUC; log-transformed AUC [25]: 12.2 log AUC; log-transformed AUC [26]: 7.5 log AUC; log-transformed AUC [27]: 6.7 log AUC
CH104 (CH103 lineage monoclonal antibody) | 9.8 | 10.8 | 6.1 | 6.9 | 8.9 | 10.6 | 7.5 | 9.9 | 8.3 | 13.7 | 11.3 | 9 | 13.1 | 10.4 | 8.1 | 11.3 | 4.5 | 12.9 | 2.2 | 10 | log-transformed AUC [21]: 10.4 log AUC; log-transformed AUC [22]: 13.2 log AUC; log-transformed AUC [23]: 10.5 log AUC; log-transformed AUC [24]: 14.2 log AUC; log-transformed AUC [25]: 12.8 log AUC; log-transformed AUC [26]: 7.8 log AUC; log-transformed AUC [27]: 7 log AUC
